Data reported in PMC12250083 (International Journal of Molecular Sciences, 2025).
Substitutions are numbered along the chain they refer to. Blank lines part the entries; values can stand above or below the molecule they belong to.

Key:
[1] = biological target: T1, acetone carboxylase (XaAC) (Xanthobacter versatilis, UniProt Q8RM03+Q8RM04, Q8RM03:E89D); test: X-band EPR of active-site Mn(II); type: binding; conditions: 10 mM AMP, 1 mM MgCl2; 50 mM Tris, pH 7.6, 150 mM NaCl; 12 K
T1 construct: gene acxA; recombinant from E. coli, His-NTA then Q-sepharose; 360 kDa α2β2γ2 heterohexamer with Mn(II); ATP/AMP site in beta subunit, Mn(II) site in alpha subunit; with Acetone carboxylase gamma subunit

[2] = biological target: T2, acetone carboxylase (XaAC) (Xanthobacter versatilis, UniProt Q8RM03+Q8RM04); test: differential scanning fluorimetry, SYPRO orange; type: binding; design: gene acxA; recombinant from E. coli, His-NTA then Q-sepharose; 360 kDa α2β2γ2 heterohexamer with Mn(II); ATP/AMP site in beta subunit, Mn(II) site in alpha subunit; with Acetone carboxylase gamma subunit; conditions: 10 mM AMP; 100 mM Tris, 100 mM KCl, pH 7.6; absolute Tm, not a shift
[3] = biological target: T3, acetone carboxylase (XaAC) (Xanthobacter versatilis, UniProt Q8RM03+Q8RM04, Q8RM03:E89A); test: differential scanning fluorimetry, SYPRO orange; type: binding; conditions: 10 mM AMP; 100 mM Tris, 100 mM KCl, pH 7.6; absolute Tm, not a shift
T3 construct: gene acxA; recombinant from E. coli, His-NTA then Q-sepharose; 360 kDa α2β2γ2 heterohexamer with Mn(II); ATP/AMP site in beta subunit, Mn(II) site in alpha subunit; with Acetone carboxylase gamma subunit

[4] = biological target: T2, acetone carboxylase (XaAC); design: gene acxA; conditions: only tested together with AMP (10 mM AMP-acetate), 1 mM MgCl2, pH 7.6; Mn(II) site
[5] = biological target: T4, Xanthobacter autotrophicus acetone carboxylase α subunit, αE89D variant (Xanthobacter autotrophicus, UniProt Q8RM03 1-776, αE89D); test: SEC + native gel or EMSA; complexes co-purified from E. coli lysate (His-NTA, then Q-sepharose), stored in 50 mM Tris pH 7.6, 150 mM NaCl, 10% glycerol, then tested by size exclusion chromatography and native gel for integrity; conditions: both partners purified
T4 construct: acetone carboxylase alpha subunit, Xanthobacter autotrophicus, glutamate 89 substituted by aspartate; The PDB entries are of the wild-type parent; also called E89D XaAC; E89D AC; source: E. coli, purified as the complex (His-NTA, Q-sepharose)
T4 sequence: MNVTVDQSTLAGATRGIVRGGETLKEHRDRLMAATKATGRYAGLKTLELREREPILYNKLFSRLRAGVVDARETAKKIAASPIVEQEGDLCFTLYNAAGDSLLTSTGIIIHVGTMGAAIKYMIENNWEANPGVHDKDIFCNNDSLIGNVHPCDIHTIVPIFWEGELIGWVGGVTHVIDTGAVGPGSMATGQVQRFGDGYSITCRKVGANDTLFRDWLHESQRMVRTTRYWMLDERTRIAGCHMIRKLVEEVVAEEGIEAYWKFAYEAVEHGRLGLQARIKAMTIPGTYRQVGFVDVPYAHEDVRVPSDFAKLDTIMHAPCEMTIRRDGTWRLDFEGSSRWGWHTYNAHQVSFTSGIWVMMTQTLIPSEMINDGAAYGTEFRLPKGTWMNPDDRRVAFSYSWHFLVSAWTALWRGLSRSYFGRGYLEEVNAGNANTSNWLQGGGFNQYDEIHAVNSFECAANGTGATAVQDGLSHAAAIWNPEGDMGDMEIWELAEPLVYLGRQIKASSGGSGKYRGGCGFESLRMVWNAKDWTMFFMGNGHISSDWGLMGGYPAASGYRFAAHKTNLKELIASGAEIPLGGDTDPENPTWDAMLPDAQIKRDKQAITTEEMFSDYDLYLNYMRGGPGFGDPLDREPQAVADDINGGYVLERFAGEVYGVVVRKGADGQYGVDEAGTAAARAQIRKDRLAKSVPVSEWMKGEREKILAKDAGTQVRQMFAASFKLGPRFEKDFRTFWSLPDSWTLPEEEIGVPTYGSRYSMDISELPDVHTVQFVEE

[6] = biological target: T5, Xanthobacter autotrophicus acetone carboxylase α subunit, αE89A variant (Xanthobacter autotrophicus, UniProt Q8RM03 1-776, αE89A); test: as above; conditions: both partners purified
T5 construct: acetone carboxylase alpha subunit, Xanthobacter autotrophicus, glutamate 89 substituted by alanine; The PDB entries are of the wild-type parent; also called E89A XaAC; E89A AC; source: E. coli, purified as the complex (His-NTA, Q-sepharose)
T5 sequence: T4 sequence with D89A

[7] = biological target: T6, Xanthobacter autotrophicus acetone carboxylase α subunit (Xanthobacter autotrophicus, UniProt Q8RM03 1-776); test: as above; conditions: both partners purified
T6 construct: acetone carboxylase alpha subunit, Xanthobacter autotrophicus; holds the Mn(II) site (H150, D153, H175, E89); A His-NTA column was used, so one subunit probably carries a His tag; also called XaAC α; AC alpha subunit; source: E. coli, purified as the complex (His-NTA, Q-sepharose)
T6 sequence: T4 sequence with D89E

T2 sequence (Q8RM03 whole entry, one chain of several): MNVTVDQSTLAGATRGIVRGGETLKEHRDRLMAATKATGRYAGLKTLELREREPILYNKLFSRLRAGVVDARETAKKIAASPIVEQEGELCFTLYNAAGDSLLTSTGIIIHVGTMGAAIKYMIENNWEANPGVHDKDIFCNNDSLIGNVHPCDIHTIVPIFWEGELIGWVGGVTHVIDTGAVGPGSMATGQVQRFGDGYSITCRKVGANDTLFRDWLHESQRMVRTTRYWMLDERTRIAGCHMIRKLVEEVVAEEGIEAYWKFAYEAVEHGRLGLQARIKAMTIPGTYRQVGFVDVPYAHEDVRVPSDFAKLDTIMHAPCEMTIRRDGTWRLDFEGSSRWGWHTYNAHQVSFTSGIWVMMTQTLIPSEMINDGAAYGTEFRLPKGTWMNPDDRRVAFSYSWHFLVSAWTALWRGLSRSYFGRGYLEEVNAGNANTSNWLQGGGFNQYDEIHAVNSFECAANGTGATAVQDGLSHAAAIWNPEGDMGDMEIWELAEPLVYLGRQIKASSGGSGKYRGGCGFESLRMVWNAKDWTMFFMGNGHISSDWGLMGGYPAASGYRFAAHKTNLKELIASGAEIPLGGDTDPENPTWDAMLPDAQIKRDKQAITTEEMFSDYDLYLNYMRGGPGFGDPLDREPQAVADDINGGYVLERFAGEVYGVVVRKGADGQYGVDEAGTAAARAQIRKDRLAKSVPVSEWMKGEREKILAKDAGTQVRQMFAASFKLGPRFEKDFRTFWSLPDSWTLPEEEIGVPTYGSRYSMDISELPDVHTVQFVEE
T3 sequence (Q8RM03 whole entry E89A, one chain of several): as the sequence (Q8RM03 whole entry, one chain of several) above, with E89A counted along it

Molecule: Nc1ncnc2c1ncn2[C@@H]1O[C@H](COP(=O)(O)O)[C@@H](O)[C@H]1O [AMP]
X-band EPR of active-site Mn(II) [1]: αE89D and the WT AC respond similarly to AMP binding
Tm [2]: 76.5 ± 0.5 °C
Tm [3]: 76 ± 0.4 °C

Molecule: CC(=O)O [acetate]
peptide-level and intact-protein HDX-MS [4]: when AMP and acetate were both present, seven of the eight peptides displayed opposite exchange patterns

More lines, now with the values ahead:

binding result [5]: binds
binding result [6]: binds
binding result [7]: binds
B1: Xanthobacter autotrophicus acetone carboxylase γ subunit (enzyme)
chain: MAYTRSKIVDLVDGKIDPDTLHQMLSTPKDPERFVTYVEILQERMPWDDKIILPLGPKLFIVQQKVSKKWTVRCECGHDFCDWKDNWKLSARVHVRDTPQKMEEIYPRLMAPTPSWQVIREYFCPECGTLHDVEAPTPWYPVIHDFSPDIEGFYQEWLGLPVPERADA
notes: acetone carboxylase gamma subunit, Xanthobacter autotrophicus; also called XaAC γ; AC gamma subunit; source: E. coli, purified as the complex (His-NTA, Q-sepharose)

binding result [5]: binds
binding result [6]: binds
binding result [7]: binds
B2: Xanthobacter autotrophicus acetone carboxylase β subunit (enzyme)
chain: MNVPVGHLRNVQVLGIDAGGTMTDTFFVDQDGDFVVGKAQSTPQNEALGLIASSEDGLANWGMSLHEALAQLQTGVYSGTAMLNRVVQRKGLKCGLIVNRGMEDFHRMGRAVQSHLGYAYEDRIHLNTHRYDPPLVPRHLTRGVVERTDMIGTQVIPLREDTARDAARDLIAADAEGIVISLLHSYKNPENERRVRDIVLEEVEKSGKKIPVFASADYYPVRKETHRTNTTILEGYAAEPSRQTLSKISNAFKERGTKFDFRVMATHGGTISWKAKELARTIVSGPIGGVIGAKYLGEVLGYKNIACSDIGGTSFDVALITQGEMTIKNDPDMARLVLSLPLVAMDSVGAGAGSFIRLDPYTRAIKLGPDSAGYRVGVCWKESGIETVTISDCHMVLGYLNPDNFLGGAVKLDRQRSVDAIKAQIADPLGLSVEDAAAGVIELLDSDLRDYLRSMISGKGYSPASFVCFSYGGAGPVHTYGYTEGLGFEDVIVPAWAAGFSAFGCAAADFEYRYDKSLDINMPTETPDTDKEKAAATLQAAWEELTKNVLEEFKLNGYSADQVTLQPGYRMQYRGQLNDLEIESPLAQAHTAADWDQLTDAFNATYGRVYAASARSPELGYSVTGAIMRGMVPIPKPKIPKEPEEGETPPESAKIGTRKFYRKKRWVDAQLYHMESLRPGNRVMGPAVIESDATTFVVPDGFETWLDGHRLFHLREV
notes: acetone carboxylase beta subunit, Xanthobacter autotrophicus; also called XaAC β; AC beta subunit; source: E. coli, purified as the complex (His-NTA, Q-sepharose)
